Biological target: gp70 env protein of amphotropic MLV (4070A envelope), on purified viral particles (amphotropic murine leukemia virus (4070A envelope))
Assay: ELISA on plate-bound MLV, dilution factor 6250, Exp073-DTV Plate 1

Sequence of gp70 env protein of amphotropic MLV (4070A envelope), on purified viral particles (amphotropic murine leukemia virus (4070A envelope)) (P21995 whole entry): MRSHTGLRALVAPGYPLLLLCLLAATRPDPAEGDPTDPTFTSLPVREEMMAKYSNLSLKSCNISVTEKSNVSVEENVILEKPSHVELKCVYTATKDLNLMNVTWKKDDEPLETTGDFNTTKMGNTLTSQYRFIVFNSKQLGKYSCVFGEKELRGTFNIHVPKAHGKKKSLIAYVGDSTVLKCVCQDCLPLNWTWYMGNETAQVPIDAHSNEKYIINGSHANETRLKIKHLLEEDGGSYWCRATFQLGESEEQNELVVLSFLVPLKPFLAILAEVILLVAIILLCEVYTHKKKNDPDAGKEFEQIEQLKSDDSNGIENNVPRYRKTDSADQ

For “83A25 monoclonal antibody (rat IgG2a, anti-gp70)”, the Mean OD was 0.803 OD.
